System: rLDHA (Homo sapiens)
Test: SPR
Details: His-tag pull-down: protein on beads in 50 mM Na3PO4, 300 mM NaCl, 0.01% Tween-20, pH 8.0, RNA binding 2 h in 3.25 mM Na3PO4, 70 mM NaCl

HULC lncRNA (in vitro transcribed)
Kd: 29 nM
